# Measured values from patent publication US20250026849A1 (ARCELLX, published 2025).
# Target: T1, CD123 (Homo sapiens (Human), UniProt P26951 19-305, limits assumed)
# T1 construct: also called CD123-Signal
# T1 sequence: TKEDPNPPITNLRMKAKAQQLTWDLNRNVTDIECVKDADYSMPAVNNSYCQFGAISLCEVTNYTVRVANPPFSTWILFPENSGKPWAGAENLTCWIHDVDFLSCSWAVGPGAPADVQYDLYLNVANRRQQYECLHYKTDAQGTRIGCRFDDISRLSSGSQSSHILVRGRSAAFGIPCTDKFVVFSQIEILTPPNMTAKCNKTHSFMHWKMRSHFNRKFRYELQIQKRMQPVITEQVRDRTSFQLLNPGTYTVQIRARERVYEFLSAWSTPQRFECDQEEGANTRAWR
# Experiment: ELISA, format not described
# Set-up: unit not given here
row,Binder,ELISA_avg
1,D domain SEQ ID NO: 725 (designed binder) MGSWSEFEYRLFAIENRLDALGGSEAELAAFEKEIAAFESELQAYKGKGNPEVEFLREEAAMIRQLLQAYRHN,3.2
2,D domain SEQ ID NO: 721 (designed binder) MGSWFEFVDRLTAIQVRLWALGGSEAELAAFEKEIAAFESELQAYKGKGNPEVEYLREEAALIRYSLQAYRHN,5.1
3,D domain SEQ ID NO: 724 (designed binder) MGSWYEFEDRLDAIQWRLWALGGSEAELAAFEKEIAAFESELQAYKGKGNPEVEFLRESAANIRQHLQAYRHN,6.3
4,D domain SEQ ID NO: 742 (designed binder) MGSWIEFESRLWAIEDRLLALGGSEAELAAFEKEIAAFESELQAYKGKGNPEVEFLRLEAADIREDLQAYRHN,8.7
5,D domain SEQ ID NO: 767 (designed binder) MGSWEEFTDRLWAIEDRLYALGGSEAELAAFEKEIAAFESELQAYKGKGNPEVEWLRDEAAFIRKSLQAYRHN,8.9
6,D domain SEQ ID NO: 754 (designed binder) MGSWYEFEERLWAIEERLYALGGSEAELAAFEKEIAAFESELQAYKGKGNPEVEYLRYEAAWIRDFLQAYRHN,5.4
7,D domain SEQ ID NO: 765 (designed binder) MGSWIEFWDRLEAIEDRLWALGGSEAELAAFEKEIAAFESELQAYKGKGNPEVEELRDEAAWIRDSLQAYRHN,4.5
8,D domain SEQ ID NO: 768 (designed binder) MGSWVEFVDRLEAIEDRLFALGGSEAELAAFEKEIAAFESELQAYKGKGNPEVEFLRDQAAYIRFMLQAYRHN,4.9
9,D domain SEQ ID NO: 752 (designed binder) MGSWWEFHDRLEAIEDRLWALGGSEAELAAFEKEIAAFESELQAYKGKGNPEVEYLRIEAADIRRQLQAYRHN,6.4
10,D domain SEQ ID NO: 759 (designed binder) MGSWYEFEWRLDAIYDRLGALGGSEAELAAFEKEIAAFESELQAYKGKGNPEVEWLREDAAEIRALLQAYRHN,6
11,D domain SEQ ID NO: 744 (designed binder) MGSWEEFEDRLWAIEDRLWALGGSEAELAAFEKEIAAFESELQAYKGKGNPEVEILRYDAAYIREILQAYRHN,4.1
12,D domain SEQ ID NO: 756 (designed binder) MGSWYEFEYRLEAIEDRLWALGGSEAELAAFEKEIAAFESELQAYKGKGNPEVEYLREEAAWIRVWLQAYRHN,6.2
13,D domain SEQ ID NO: 750 (designed binder) MGSWYEFEWRLMAIEDRLWALGGSEAELAAFEKEIAAFESELQAYKGKGNPEVEYLRHEAAEIRDVLQAYRHN,3.4
14,D domain SEQ ID NO: 740 (designed binder) MGSWYEFEERLYAIEDRLYALGGSEAELAAFEKEIAAFESELQAYKGKGNPEVEFLRQEAADIRLMLQAYRHN,11.5
15,D domain SEQ ID NO: 760 (designed binder) MGSWVEFENRLEAIENRLWALGGSEAELAAFEKEIAAFESELQAYKGKGNPEVEWLREDAAQIRMMLQAYRHN,6.2
16,D domain SEQ ID NO: 727 (designed binder) MGSWWEFLDRLDAIEMRLFALGGSEAELAAFEKEIAAFESELQAYKGKGNPEVEYLREEAALIRNMLQAYRHN,9
17,D domain SEQ ID NO: 762 (designed binder) MGSWFEFEWRLEAIFDRLYALGGSEAELAAFEKEIAAFESELQAYKGKGNPEVEVLRAEAAEIRLRLQAYRHN,6.9
18,D domain SEQ ID NO: 738 (designed binder) MGSWVEFWDRLWAIEDRLWALGGSEAELAAFEKEIAAFESELQAYKGKGNPEVEHLRHYAADIRVWLQAYRHN,4.5
19,D domain SEQ ID NO: 741 (designed binder) MGSWTEFEWRLYAIEDRLMALGGSEAELAAFEKEIAAFESELQAYKGKGNPEVEFLRDEAADIRQYLQAYRHN,4.2
20,D domain SEQ ID NO: 758 (designed binder) MGSWYEFEHRLDAIYDRLWALGGSEAELAAFEKEIAAFESELQAYKGKGNPEVEWLREEAAWIRLWLQAYRHN,6.3
21,D domain SEQ ID NO: 739 (designed binder) MGSWYEFADRLWAIEDRLWALGGSEAELAAFEKEIAAFESELQAYKGKGNPEVEFLRYYAADIRWVLQAYRHN,4
22,D domain SEQ ID NO: 751 (designed binder) MGSWYEFYNRLDAIEDRLWALGGSEAELAAFEKEIAAFESELQAYKGKGNPEVEYLRQEAADIRGQLQAYRHN,11.3
23,D domain SEQ ID NO: 770 (designed binder) MGSWWEFEMRLEAIEDRLFALGGSEAELAAFEKEIAAFESELQAYKGKGNPEVESLRWEAAFIRDILQAYRHN,4
24,D domain SEQ ID NO: 747 (designed binder) MGSWVEFESRLAAIEHRLWALGGSEAELAAFEKEIAAFESELQAYKGKGNPEVEELREYAAEIRDWLQAYRHN,3.7
25,D domain SEQ ID NO: 729 (designed binder) MGSWWEFESRLDAIFMRLTALGGSEAELAAFEKEIAAFESELQAYKGKGNPEVEDLREDAAFIREFLQAYRHN,3.7
26,D domain SEQ ID NO: 749 (designed binder) MGSWYEFDSRLMAIEDRLWALGGSEAELAAFEKEIAAFESELQAYKGKGNPEVEYLRQEAAEIRMILQAYRHN,3.2
27,D domain SEQ ID NO: 730 (designed binder) MGSWVEFWHRLDAIKARLNALGGSEAELAAFEKEIAAFESELQAYKGKGNPEVEDLRWYAADFRLILQAYRHN,3.5

# More lines, now with the values ahead:
row,ELISA_avg,Binder
1,15,D domain SEQ ID NO: 710 (designed binder) MGSWGEFWARLEAIWIRLDALGGSEAELAAFEKEIAAFESELQAYKGKGNPEVEWLREEAADIRRSLQAYRHN
2,4.8,D domain SEQ ID NO: 757 (designed binder) MGSWYEFENRLGAIGDRLWALGGSEAELAAFEKEIAAFESELQAYKGKGNPEVEWLRDEAAYIRAVLQAYRHN
3,4.6,D domain SEQ ID NO: 753 (designed binder) MGSWYEFWDRLEAIEERLWALGGSEAELAAFEKEIAAFESELQAYKGKGNPEVEYLRLEAADIRRILQAYRHN
4,21.8,D domain SEQ ID NO: 773 (designed binder) MGSWIEFEDRLEAIEDRLFALGGSEAELAAFEKEIAAFESELQAYKGKGNPEVEWLRQEAAEIRLMLQAYRHN
5,4.9,D domain SEQ ID NO: 766 (designed binder) MGSWFEFWDRLDAIEDRLYALGGSEAELAAFEKEIAAFESELQAYKGKGNPEVEELRDEAAWIRGTLQAYRHN
6,7.6,D domain SEQ ID NO: 748 (designed binder) MGSWWEFEHRLFAIEDRLWALGGSEAELAAFEKEIAAFESELQAYKGKGNPEVEFLRDYAAEIRDYLQAYRHN
7,6,D domain SEQ ID NO: 761 (designed binder) MGSWYEFEERLEAIEDRLWALGGSEAELAAFEKEIAAFESELQAYKGKGNPEVEWLREQAAFIRTMLQAYRHN
8,12.2,D domain SEQ ID NO: 722 (designed binder) MGSWFEFLDRLDAIEERLWALGGSEAELAAFEKEIAAFESELQAYKGKGNPEVEWLREEAAVIRDSLQAYRHN
9,6.1,D domain SEQ ID NO: 755 (designed binder) MGSWYEFENRLEAIEERLWALGGSEAELAAFEKEIAAFESELQAYKGKGNPEVEMLREEAAFIRDWLQAYRHN
10,3.9,D domain SEQ ID NO: 726 (designed binder) MGSWVEFEYRLDAITERLLALGGSEAELAAFEKEIAAFESELQAYKGKGNPEVEILREEAAFIRQWLQAYRHN
11,4.9,D domain SEQ ID NO: 728 (designed binder) MGSWWEFEDRLDAIEYRLFALGGSEAELAAFEKEIAAFESELQAYKGKGNPEVEFLREEAAFIRIFLQAYRHN
12,3,D domain SEQ ID NO: 772 (designed binder) MGSWYEFYQRLEAIEDRLFALGGSEAELAAFEKEIAAFESELQAYKGKGNPEVEWLRDEAAEIRVVLQAYRHN
13,3,D domain SEQ ID NO: 771 (designed binder) MGSWFEFEIRLEAIEDRLFALGGSEAELAAFEKEIAAFESELQAYKGKGNPEVEFLRDEAAEIRQVLQAYRHN
14,5.1,D domain SEQ ID NO: 743 (designed binder) MGSWFEFEDRLDAIWDRLWALGGSEAELAAFEKEIAAFESELQAYKGKGNPEVEFLRMDAAMIRYILQAYRHN
15,4.1,D domain SEQ ID NO: 723 (designed binder) MGSWYEFMVRLDAIEERLFALGGSEAELAAFEKEIAAFESELQAYKGKGNPEVEFLREEAASIRYHLQAYRHN
16,4.2,D domain SEQ ID NO: 746 (designed binder) MGSWYEFWDRLEAIEDRLWALGGSEAELAAFEKEIAAFESELQAYKGKGNPEVEFLRYSAAEIRYQLQAYRHN
